Assay results reported in the nanobody polyreactivity screen of Harvey et al. (2022).

Test: yeast display, Sf9 membrane polyspecificity reagent, FACS + sequencing; frameworks hold sequencing errors
How it was run: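 Galactose-induced (36–48 hours) yeast carrying a synthetic nanobody display library were exposed to 10% biotinylated, detergent-solubilized Sf9 membrane reagent at 4 °C for 1 hour. FACS followed streptavidin microbead enrichment, using low and high (top ~1%) gates for expression (anti-HA) and reagent binding (streptavidin). Colony PCR, MiSeq 2 × 250 sequencing and CDR-length filtering followed. Labels for polyreactivity reflect the gate of origin.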

| Sequence | polyreactivity (PSR sort gate) |
| --- | --- |
| QVQLVESGGGLVQAGGSLRLSCAASGRTFIRYCMGWYRQAPGKERELVAAITSRGGRTYYADSVKGRFTISRDNAKNTVYLQMNSLIREDTAVYYCAADTTWYSRYRHLWYRYYYWGQGTQVTVSS | high polyreactivity |
| QVQLVESGGGLVQAGGSLRLSCAASGFTLPANGMGWYRQAPGKERQLVAAISFIAGSTYYADSVKGRFTISRDNAKNTVYLQMKSLKPEDTAVYYCATQFPPSTFYDYWGQGTQVTVSS | low polyreactivity |
| QVQLEESGGGLVQAGGSLRLTCAGSGSIFYVYPMGWYRPAPGKERELVAAIYSGASTYYADSVKGRFTISRDNAKNTVYLQKNSLKPEDTAVYYCAAYVFFQTYFSYYVEGDFWGQGTQVTVSS | low polyreactivity |
| QVQLVESGGGLVQAGGSLRLSCAASGITLNGYVMGWYRQAPGKEREFVAVISSRGGSTYYADSVKGRFTISRDNAKNTVYLQMNSLKPEDTAVYYCAARWGYSRRGYRGYDYWGQGTQVTVSS | high polyreactivity |
| QVQLVESGGGLVQAGGSLRLSCAASGSIFSSYAMGWYRQAPGKERELVAAITTRGDSTRYADSVKGRFTISRDNAKNTVYLQMNSLKPEHTAVYYCNARYRDPYWDSGYWGQGTQVTVSS | high polyreactivity |
| QVQLVESGGGLVQAGGSLRLSCAASGSTFYYYAMGWYRQAPGKERELVAAISWSGGSTYYADSVKGRFTISRDNAKNTVYLQMNSLKPEDTAVYYCNKYVRFRGGAYVTGYDYWGQGTQVTVSS | high polyreactivity |
| QVQLVESGGGLVQAGGSLRLSCAASGRIFAWNAMGWYRQAPGTERELVARIRVSGGRTYYADSVKGRFTISRDNAKNTVYLQMNSLKPEDTAVDYCNAYLRSGSMDYWGQGTQVTVSS | high polyreactivity |
| QDQLVESGGGLVQAGGSLCLSCAASGITFRFYAMGWNRQAPGKERELVAAISWSGGRTYYADSVKGRFTISRDNAKNTVYLQMNSLKPEDTAVYYCAAEASSVPGYDYWGEGTQVTVSS | low polyreactivity |
| QVQLVESGGGLVQAGGSLRLSCAASGFTFGANVMGWYRQAPGKERELVAAITSSGGSTYYADSVKGRFTISRDKAKNTVYLQMYSLKPEDTAVYYCNRRRGAYYGYYWGQGTQVTVSS | high polyreactivity |
| QVQLVESGGGLVQAGGSLRLSCAASGGILHGYAMGWYIQEPGKERELVSGITYSGDDTNYADSVKGRFTISRDNAKNTVYLQMNSLKPEDTAVYYCAAGPVWHIFTIDYVSFDDWGQGTQVTVSS | low polyreactivity |
| QVQLVESGGGLVQAGGSLRLSCAASGFIFRDNTMGWYRQAPGKEREFVAGITKSGGSTYYADSVKGRFTISRDNAKNTVYLQMNSLKPEDTAVYYCAAYVPYTRYDYWGQGTQVTVSS | high polyreactivity |
| QVQLVESGGGLVQAGGRLRLSCADSGSTFVNSVMGWYRPAPGKERELVAGIRFRGGRTYYADSVKGRFTISRDNAKNTVYLQMNSLKPEDTAVYYCAKVQRQSVGFDYWGQGTQVTVSS | high polyreactivity |
| QVQLVESGGGLVQAGGSLRLSCAASGRIFDDNAMGWYRQAPGKETELVAAISSSGGSTYYADSVKGRFTISRDNAKNSVYLQMNSLKPEDTAVYYCAKAPGQDTPYPYGYWGQGTQVTVSS | high polyreactivity |
| QVHLVESGGGLVQAGGSLRLSCAATGSTFPSYTMGWYRQAPGKERELVAVITLRGGSTYYADSVKGRFTISRDNAKNTVYLQMNSLKPEDTAVYYCAANGQLQGWFDMYYWGQGTQVTVSS | low polyreactivity |
| QVQLVESGGGLVQAGGSLRLSCAASGLIFKVYAMGWYRQAPGKEWELVAAITYSGGSTDYADSVKGRFTISRDNAKNTVNLQMNSLKPEDTAVYYCNVEKVGHVNSYGYDYWGQGTQVTVSS | low polyreactivity |
| QVQLVESGGGLVQAGGSLRLSCAASGRIFVYYAMGWYRQAPGKERELVAAITYSVDSTYYADSVKGRFTISRDNAKNTVYLQMNSLKPEDTAVYYCATDVDLAYGYQYEYWGQGTQVTVSS | low polyreactivity |
| QVQLVESGGGLVQAGGSLRLSCAASGSIFYINAMGWYRQAPGKERELVAAITWRGAGTYYADSVKGRFTISRDNAKNTVYLQMNSLKPEDTAVYYCAADDSPWRVPRNYWGQGTQVTVSS | low polyreactivity |
| QVQLVESGGGLVQAGGSLRLSCAASGSIFLTNAMGWYRQAPGKEREMVAAITLSGGITYYADSVKGRFTISRDNAKNNVYLQMNILKPEDTAVYYCAADVPGGIGNGGGYDYWGQGTQVTVSS | low polyreactivity |
| QVQLVESGGGLVQAGGSLRLSCAASGSIFRSYAMGWYRQAPGKEREFVAAIRNSSGRTYYADSVKGRFTISRDNAKNTVYLQMNSLKPEDTAVYYCAARLPRTYQGGKLYRLQYSWGQGTQVTVSS | high polyreactivity |
| QVQLVESGGGLVQAGGSLRLSCAASGRTFLRNAMGWYRQAPGKERELVAAISWRGGSTYYADSLKGRFTISRDNAKNTVYLQMNSLKPEDTAVYYCNARDGLASDWGQGTQVTVSS | high polyreactivity |
| QVQLVESGGGLVQAGGILRLSCAASGSIYGYNAMGSYRQAPGKERELVADITSSGSTYYADSVKGRFTISRDNAKNTVYLQMNSLKPEDTAVYYCAARYFVYYLEVDSWGQGTQVTVSS | low polyreactivity |
| QVQLVESGGGLVQAGGSLRLSCAASGGTFYFYAMGWYRQAPGKERELVATITRGGSTYYADSVKGRFTISRDNAKNTVYLQMNSLKPEDTAVYYCAARQYSRRRSPVSTWYYYWGQGTQVTVSS | high polyreactivity |

| Sequence | polyreactivity (PSR sort gate) |
| --- | --- |
| QVQLVESGVGLVQAGGSLRLSSAASGSTFGYYTMGWYRQAPGKERELVASISWSGASTHYADSVKGRFTISRDNAKNTVYLQMNSLKPDDTEVYYCAADWQQQPGTNSFDYWGQGTQVTVSS | low polyreactivity |
| QDQLVESGGGLVQAGCSLRLSCAASGSTIPYNAMGWYRQAPGKERELVAAITWRAGRTYYADSVKGRFTISRDNAKITVYLQMNSLKAEDTAVYDCAKSYQRGVNHYEYWGQGTQVTVSS | high polyreactivity |
| QVQLVESGGGLVQAGGSLRLSCAASGRTLTRYTMGWYRQAPGKERELVATISRSGGNTHYADSLKGRFTISRDNAKNTVYFQMNSLKPEDTAVFYCNAVRYAIYGYDYWGQGTQVTVSS | high polyreactivity |
| QVQLVESGGGLVQAGGSLRLSCAASGRTFSYNAMGWYRQAPGKERELVAAISYDGGRTYYADSVKGRFTISRDNAKNTVYLQMNSLKPEDTAVYYCAAYPYRGPHPWTIGDYWGQGTQVTVSS | low polyreactivity |
| QVQLVESGGGLVQAGGSLRLSCAASGRTFFGYAMGWYRQAPGKERELVATISGSGASTYYADSVKGRFTISRDNAKNTVYLQMNSLKPEDTAVYYCAARYVTTRHSRYYYWGQGTQVTVSS | high polyreactivity |
| QVQLVESGGCIVQAGGSLRLSCAASGSIFTYNAMGWYRQAPGKERELVAAISASGGRTYYADSVKGRFTISRDNAKNTVYLQMNSLKPEDTAVYYCAARILVYGLRRFDYWGQGTQVNVSS | high polyreactivity |
| QVQLVESGGGLVQAGGSLRLSCAASGSTFVRYAMGWYRQAPGKERELVAGISSGDRTYYADSVKGRFTISRDNAKNTVYLQMNSLKPEDTAVYYCNARPVYLLEGYYWGQGTQVTVSS | low polyreactivity |
| QVQLVESGGGLVQAGGSLRLSCAASGFTFAFYAMGWYRQAPGKERELVAAITGSGGSTYYADSVKGRFTISRDNAKNTVYLQMNSLKPEDTAVYYCAADLVVDYEWYDYWGQGTQVTVSS | high polyreactivity |
| QVQLVESGGGLVQAGGSLRLSCAASGSTFVYNTMGWYRQAPGKERELVAAISKSGTNTLYADSVKGRFTISRDNAKNTVYLQMNSLKPEDTAVYYCAVRSVPRWFTELDYWGQGTQVTVSS | low polyreactivity |
| QVQLVESGGGLVQAGGSLRLSCAASGRILGNNVMGWYRQAPGKERELVDAITSSGGRTYYADSVKGRFTISRDNAKNTVYLQMNSLKPEDTAVYYCAAERRYYGKFNYWGQGTQVTVSS | high polyreactivity |
| QVQLVESGGGLLQARGSLRLTCAASGIIFIKYAMGWYRQPPGKDRELVASSTSGGSTHYADSVKGRFTISRDNAKNTVYLQMNSLIPEETSVYYCNADILRHDAYFKDRYQAGSYWGLGTQVTVSS | low polyreactivity |
| QVQLQESGGGLVQAGGSLRPSCAASGSLSDGVPMGWYRQAPGEERELVATTVLGATTNYADSVKGRFTISRGNAKNTVYLQMNSLKPEETAVYYCAAPLRYDKGFSYWGQGTQVTVSS | low polyreactivity |
| QVQLVESGGGLVQAGGSLRLSCAASGLIFVNDMGLYRQAPGKEREFVAAITYSTGSTYYADSVKGRFTISRDNAKNTVYLQMNSLKPEDTAVYYCAKDRSGHGTERDYWGQGTQVTVSS | low polyreactivity |
| QVQLVESGGGLVQAGGRLRLSCAASGSNFDIYALGWYRQAPGKERELVAAIRGRGGSTYYADSVKGRFTISRDNAKNTVYLQMNSLKPEDTAVYYCAARNSYGNWRYYYWGQGTQVTVSS | high polyreactivity |
| QVQHVESGGGLVQAGGSLRLSCAASGLTFRVYAMGWYRQEPGKERELVAAITGGGGSTYADSVKGRFTISRENAKNTVYLQMNSLNPDDTAVYYCNIKGYYYKFDYWGQGTQVTVSS | low polyreactivity |
| QVQLVESGGGLVQAGGSLRLSCAASGRTFKGNAMGWYRQAPGKERELVAAISKSGGRTYYADSVKGRFTISRDNAKNTVYLQMNSLKPEDTAVYYCAAGYYPSSSGDDYWGQGTQVTVSS | high polyreactivity |
| QVQLVESGGGLVQAGGSLRLSCAASGSTFSWYAMGWYRPAPGKEMELVAAISSGGSTNYADSVKGRFTISRDNAKNTVYLQMNSLKPEDTAVFYCAAVWSRFLISYSTGWWFEYWGQGTQVTVSS | low polyreactivity |
| QVQLVESGGGLVQAGGILRLSCAASGINFLYYAMGWYREAPGKEMELVAAINGSGGNTYYADSVKGRFTISLDNAKNTVYLQMNRLKPEDTAVYYCNADFFVYSYQQWDEYYDYWGQGTQVTVSS | low polyreactivity |
| QVQLVETGGGLVQAGGSLRLSCAASGRIFGHYVMGWYRPAPGTERELVAAITWRGGSTYYADSVKGRFTISRDYAKNTVYLQMNSLKPEDTAVYDCNASPSEVRRRYDYWGQGTQVTVSS | high polyreactivity |
| QVQLVESGGGLVQAGGSLRLSCAASGSIFGPYAMGWYRQAPGKERELVAAISKGGGSTYYADSVKGRFTISRDNAKNTVYLQMNSLKPDDTAVYYCAADQDKPYDHWGQGTQVTVSS | low polyreactivity |
| QGQLGESGGGLVQAGGSLRLSCAASGRIFNCYGMGWYRQAPGKERELVATISKSSDITYYADSVKGRFTISRDIAKNNVYLQMNSLRPEDTAVYYCAAKVRQWRQGSYSSQYDYWGQGTQVTVSS | high polyreactivity |
